# Biological target: SARS-CoV-2 XBB.1 S2P spike trimer (SARS-CoV-2)
# Assay: SPR; spike captured through its C-terminal His-tag on a CM5 chip with anti-His antibodies (His Capture Kit); serially diluted human ACE2-Fc flowed over; HBS-EP+ buffer; 25°C; Biacore T200, single-cycle mode; 1:1 binding model
# human ACE2-Fc protein (from pcDNA3-sACE2-WT(732)-IgG1), sequence (Q9BYF1 18-732): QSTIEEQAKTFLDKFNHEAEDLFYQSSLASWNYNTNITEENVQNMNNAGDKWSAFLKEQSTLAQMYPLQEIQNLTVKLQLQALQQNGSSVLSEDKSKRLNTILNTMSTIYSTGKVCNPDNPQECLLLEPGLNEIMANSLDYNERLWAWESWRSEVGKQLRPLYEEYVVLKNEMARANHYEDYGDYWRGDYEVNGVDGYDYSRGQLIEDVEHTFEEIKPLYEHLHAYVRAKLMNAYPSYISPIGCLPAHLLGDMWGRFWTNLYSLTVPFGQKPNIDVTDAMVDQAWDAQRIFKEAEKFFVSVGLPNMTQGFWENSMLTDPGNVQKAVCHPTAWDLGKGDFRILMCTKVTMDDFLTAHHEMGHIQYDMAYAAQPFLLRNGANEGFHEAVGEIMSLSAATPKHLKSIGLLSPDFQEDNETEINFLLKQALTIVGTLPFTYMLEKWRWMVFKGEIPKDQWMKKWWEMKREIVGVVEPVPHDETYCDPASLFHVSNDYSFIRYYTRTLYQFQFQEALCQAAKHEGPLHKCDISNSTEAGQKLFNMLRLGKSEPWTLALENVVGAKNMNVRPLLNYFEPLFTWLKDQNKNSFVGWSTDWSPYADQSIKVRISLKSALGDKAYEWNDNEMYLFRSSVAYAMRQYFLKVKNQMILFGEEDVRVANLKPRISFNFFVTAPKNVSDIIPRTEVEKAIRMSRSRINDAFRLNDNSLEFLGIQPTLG
substance,measurement,value
human ACE2-Fc protein (from pcDNA3-sACE2-WT(732)-IgG1) (from UniProt Q9BYF1 18-732) (Fc fusion),Kd,2.06 nM

# Reference: PMC9747694
